Test results published in patent US20120121559A1 (VALTED, published 2012).

Legend:
[1] = target: PARsylated PARP1 (recombinant PARP1 automodified in vitro), P09874
[2] = target: recombinant PARP1, non-PARsylated, P09874
[3] = target: PARsylated PARP1, endogenous protein of MCF7 cells, P09874
[4] = target: T1, PARIS (parkin interacting substrate) (human, UniProt Q6NUN9 1-644, limits assumed); assay: immunoprecipitation of endogenous Iduna from MCF7 lysate, immunoblot
T1 construct: Negative control of the co-immunoprecipitation
T1 sequence (Q6NUN9 whole entry): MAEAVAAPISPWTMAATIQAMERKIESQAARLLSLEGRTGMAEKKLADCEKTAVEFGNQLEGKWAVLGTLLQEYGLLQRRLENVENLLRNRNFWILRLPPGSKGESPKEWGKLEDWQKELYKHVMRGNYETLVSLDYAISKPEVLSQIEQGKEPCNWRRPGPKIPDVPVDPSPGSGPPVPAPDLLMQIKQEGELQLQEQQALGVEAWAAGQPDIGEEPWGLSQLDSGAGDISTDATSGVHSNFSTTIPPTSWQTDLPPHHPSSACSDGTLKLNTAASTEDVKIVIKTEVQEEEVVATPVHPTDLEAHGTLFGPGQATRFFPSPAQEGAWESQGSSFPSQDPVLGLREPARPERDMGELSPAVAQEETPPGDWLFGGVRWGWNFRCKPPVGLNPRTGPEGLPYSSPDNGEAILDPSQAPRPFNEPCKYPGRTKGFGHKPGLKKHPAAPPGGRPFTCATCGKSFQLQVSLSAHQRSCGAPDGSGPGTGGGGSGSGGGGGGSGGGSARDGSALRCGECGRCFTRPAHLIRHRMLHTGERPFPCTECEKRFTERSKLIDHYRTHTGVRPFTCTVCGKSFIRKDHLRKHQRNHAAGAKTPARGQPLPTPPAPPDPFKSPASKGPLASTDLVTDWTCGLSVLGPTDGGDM

Chain of PARsylated PARP1, endogenous protein of MCF7 cells, P09874 (P09874 whole entry, looked up): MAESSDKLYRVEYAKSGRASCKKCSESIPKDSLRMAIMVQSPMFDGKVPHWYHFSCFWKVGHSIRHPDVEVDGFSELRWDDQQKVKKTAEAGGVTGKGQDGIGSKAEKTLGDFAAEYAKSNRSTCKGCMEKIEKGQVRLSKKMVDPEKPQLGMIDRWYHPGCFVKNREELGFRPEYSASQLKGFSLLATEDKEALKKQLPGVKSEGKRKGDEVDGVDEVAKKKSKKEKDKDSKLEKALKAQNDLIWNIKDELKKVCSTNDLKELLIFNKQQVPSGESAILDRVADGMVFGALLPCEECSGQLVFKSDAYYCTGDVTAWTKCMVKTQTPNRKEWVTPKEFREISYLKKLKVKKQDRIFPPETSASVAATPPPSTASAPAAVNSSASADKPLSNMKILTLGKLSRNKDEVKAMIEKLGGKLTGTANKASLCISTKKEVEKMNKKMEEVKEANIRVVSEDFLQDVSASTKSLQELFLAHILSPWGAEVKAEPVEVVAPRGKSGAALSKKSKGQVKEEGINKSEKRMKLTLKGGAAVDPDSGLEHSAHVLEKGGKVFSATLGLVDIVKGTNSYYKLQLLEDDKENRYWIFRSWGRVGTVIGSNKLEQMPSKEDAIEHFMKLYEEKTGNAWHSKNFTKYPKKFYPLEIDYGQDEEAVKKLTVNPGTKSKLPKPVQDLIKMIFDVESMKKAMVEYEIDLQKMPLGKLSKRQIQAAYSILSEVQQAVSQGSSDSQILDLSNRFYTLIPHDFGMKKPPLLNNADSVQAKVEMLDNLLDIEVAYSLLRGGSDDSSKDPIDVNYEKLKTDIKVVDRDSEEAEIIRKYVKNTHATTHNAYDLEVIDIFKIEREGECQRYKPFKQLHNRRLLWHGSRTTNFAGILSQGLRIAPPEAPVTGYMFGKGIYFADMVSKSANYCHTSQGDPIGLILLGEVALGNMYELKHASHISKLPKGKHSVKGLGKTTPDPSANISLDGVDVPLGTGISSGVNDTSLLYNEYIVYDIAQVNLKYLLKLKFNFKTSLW
Chain of recombinant PARP1, non-PARsylated, P09874 (P09874 whole entry, looked up): as above
Chain of PARsylated PARP1 (recombinant PARP1 automodified in vitro), P09874 (P09874 whole entry, looked up): as above

B1: GST-Iduna (protein)
chain: MEMAGCGEIDHSINMLPTNKKANESCSNTAPSLTVPECAICLQTCVHPVSLPCKHVFCYLCVKGASWLGKRCALCRQEIPEDFLDKPTLLSPEELKAASRGNGEYAWYYEGRNGWWQYDERTSRELEDAFSKGKKNTEMLIAGFLYVADLENMVQYRRNEHGRRRKIKRDIIDIPKKGVAGLRLDCDTNTVNLARESSADGADSGSAQTGASVQLAVPSSTRPLTSVDGQLTSPVTPSPDAGISLEDSFAHLQLSGDSIAERSHRGEGEEDHESPSSGRVPDTSVEETESDASSDSEDAPVVVAQHSLTQQRPLVPNGNQTVADQSDRSGTDRSVAGGGTMSVNVRSRRPDGQCTVIEV
Question: Which “in vitro ubiquitination assay (E1, UBCH 5c, ubiquitin), immunoblot with antibodies to ubiquitin” value [1] does the source give for B1 here?
Answer: Only PARsylated PARP1 is ubiquitinated by GST-Iduna

Question: And the “in vitro ubiquitination assay (E1, UBCH 5c, ubiquitin), immunoblot with antibodies to ubiquitin” value [2]?
Answer: Only PARsylated PARP1 is ubiquitinated by GST-Iduna (non-PARsylated PARP1 is not ubiquitinated)

B2: GFP-Iduna (EGFP-tagged Iduna) (protein)
chain: MEMAGCGEIDHSINMLPTNKKANESCSNTAPSLTVPECAICLQTCVHPVSLPCKHVFCYLCVKGASWLGKRCALCRQEIPEDFLDKPTLLSPEELKAASRGNGEYAWYYEGRNGWWQYDERTSRELEDAFSKGKKNTEMLIAGFLYVADLENMVQYRRNEHGRRRKIKRDIIDIPKKGVAGLRLDCDTNTVNLARESSADGADSGSAQTGASVQLAVPSSTRPLTSVDGQLTSPVTPSPDAGISLEDSFAHLQLSGDSIAERSHRGEGEEDHESPSSGRVPDTSVEETESDASSDSEDAPVVVAQHSLTQQRPLVPNGNQTVADQSDRSGTDRSVAGGGTMSVNVRSRRPDGQCTVIEV
Question: With B2 as the binder, how does the “in vitro ubiquitination assay on anti-GFP immunoprecipitates, immunoblot with antibodies to PAR and ubiquitin” value [3] read?
Answer: only GFP-Iduna is capable of polyubiquitination of PARsylated PARP1

B3: human Iduna (RNF146) (enzyme)
chain: MAGCGEIDHSINMLPTNKKANESCSNTAPSLTVPECAICLQTCVHPVSLPCKHVFCYLCVKGASWLGKRCALCRQEIPEDFLDKPTLLSPEELKAASRENGEYAWYYEGRNGWWQYDERTSRELEDAFSKGKKNTEMLIAGFLYVADLENMVQYRRNEHGRRRKVKRDIIDIPKKGVAGLRLDCDANTVNLARESSADGADSVSAQSGASVQPLVSSVRPLTSVDGQLTSPATPSPDASTSLEDSFAHLQLSGDNTAERSHRGEGEEDHESPSSGRVPAPDTSIEETESDASSDSEDVSAVVAQHSLTQQRLLVSNANQTVPDRSDRSGTDRSVAGGGTVSVSVRSRRPDGQCTVIEV
notes: also called hIduna; endogenous Iduna (MCF7 cells)
Question: Does B3 bind [4]?
Answer: no binding
